Assay results: the supplement of paper PMC7877785
± gives the uncertainty stated by the source.

Experiment: self-splicing fitness, log relative to wild type (ln ratio); higher = more splicing; Tetrahymena group I intron in knt gene, E. coli kanamycin selection, DiMSum; sequences stand for … in CUCUCU…GGAGGGAAAAGUUAUCAGGCAUGCACCUGGUAGCUAGUCUUUAAACCAAUAGAUUGCAUCGGUUUAAAAGGCAAGACCGUCAAAUUGCGGGAAAGGGGUCAACAGCCGUUCAGUACCAAGUCUCAGGGGAAACUUUGAGAUGGCCUUGCAAAGGGUAUGGUAAUAAGCUGACGGACAUGGUCCUAACCACGCAGCCAAGUCCUAAGUCAACAGAUCUUCUGUUGAUAUGGAUGCAGUUCACAGACUAAAUGUCGGUCGGGGAAGAUGUAUUCUUCUCAUAAGAUAUAGUCGGACCUCUCCUUAAUGGGAGCUAGCGGAUGAAGUGAUGCAACACUGGAGCCGCUGGGAACUAAUUUGUAUGCGAAAGUAUAUUGAUUAGUUUUGGAGUACUCGUGGUCG
In short: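 DiMSum derived fitness as the error-weighted combination of fold changes across replicates, kanamycin versus no kanamycin, normalised to wild type. E. coli BL21(DE3) held the library, which randomised all eight P1ex-region intron nucleotides within the knt kanamycin-resistance gene on pET-22b(+). Six replicate transformations grew overnight at 37°C or 30°C on LB agar with or without 25 μg/mL kanamycin, also containing 100 μg/mL carbenicillin, 50 μM IPTG and 0.2% rhamnose, and pooled colonies were amplicon-sequenced on an Illumina HiSeq 2500.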

Sequence | self-splicing fitness (ln) (30 °C) | self-splicing fitness (ln) (37 °C)
GGAAAGCAAUAUUACGCUCU | -3.11 ± 0.33 | –
GGAAAGCAAUAUUACGGAUA | -2.59 ± 0.21 | -1.55 ± 0.19
GGAAAGCAAUAUUACGGAUG | -2.54 ± 0.17 | -2.18 ± 0.21
GGAAAGCAAUAUUACGGCAG | -1.79 ± 0.21 | -3.11 ± 0.43
GGAAAGCAAUAUUACGGCGA | -0.475 ± 0.1 | -0.211 ± 0.089
GGAAAGCAAUAUUACGUAAA | -1.94 ± 0.1 | -0.563 ± 0.11
GGAAAGCAAUAUUACGUAAC | -1.42 ± 0.12 | -1.42 ± 0.16
GGAAAGCAAUAUUACGUACC | -2.13 ± 0.46 | -2.35 ± 0.49
GGAAAGCAAUAUUACGUCGG | -3.51 ± 0.36 | –
GGAAAGCAAUAUUACGUGUU | -2.76 ± 0.11 | -1.66 ± 0.12
GGAAAGCAAUAUUACGUUGC | -4.27 ± 0.35 | -2.2 ± 0.26
GGAAAGCAAUAUUACGUUGG | -3.55 ± 0.2 | -2.83 ± 0.34
GGACAGCAAUAUUACGAACA | -0.522 ± 0.18 | -0.703 ± 0.18
GGACAGCAAUAUUACGAACG | -0.686 ± 0.08 | -0.333 ± 0.1
GGACAGCAAUAUUACGAAGA | -2.27 ± 0.22 | -0.517 ± 0.19
GGACAGCAAUAUUACGAGCU | -1.01 ± 0.18 | 0.191 ± 0.19
GGACAGCAAUAUUACGAGGA | -2.32 ± 0.2 | -1.85 ± 0.16
GGACAGCAAUAUUACGAUAG | -3.66 ± 0.25 | -2.13 ± 0.23
GGACAGCAAUAUUACGCAAA | -1.19 ± 0.13 | -0.67 ± 0.12
GGACAGCAAUAUUACGCAGA | -0.851 ± 0.16 | -0.643 ± 0.15
GGACAGCAAUAUUACGCGAG | -1.24 ± 0.058 | -0.0238 ± 0.063
GGACAGCAAUAUUACGCGGC | -3.12 ± 0.22 | -2.76 ± 0.34
GGACAGCAAUAUUACGCGGG | -2.52 ± 0.1 | -0.903 ± 0.091
GGACAGCAAUAUUACGCGUA | -0.744 ± 0.065 | -0.68 ± 0.073
GGACAGCAAUAUUACGGCUA | -0.452 ± 0.13 | -0.278 ± 0.12

Sequence | self-splicing fitness (ln) (30 °C) | self-splicing fitness (ln) (37 °C)
GGACAGCAAUAUUACGGUAU | -0.41 ± 0.066 | -0.343 ± 0.09
GGACAGCAAUAUUACGUACC | -1.81 ± 0.32 | –
GGACAGCAAUAUUACGUCAG | -0.431 ± 0.068 | -0.434 ± 0.084
GGACAGCAAUAUUACGUGAU | -0.212 ± 0.061 | -0.0525 ± 0.078
GGACAGCAAUAUUACGUGCU | -0.778 ± 0.11 | -0.685 ± 0.13
GGACAGCAAUAUUACGUUAC | -2.86 ± 0.2 | -2.49 ± 0.26
GGACAGCAAUAUUACGUUCU | -2.91 ± 0.12 | -2.45 ± 0.18
GGACAGCAAUAUUACGUUUU | -1.06 ± 0.061 | -0.21 ± 0.073
GGAGAGCAAUAUUACGAACA | – | -1.93 ± 0.22
GGAGAGCAAUAUUACGAAGA | -3.05 ± 0.44 | -1.59 ± 0.39
GGAGAGCAAUAUUACGAAGC | -3.17 ± 0.37 | –
GGAGAGCAAUAUUACGACAU | -2.642 ± 0.022 | -1.55 ± 0.037
GGAGAGCAAUAUUACGACGA | -2.34 ± 0.21 | -2.08 ± 0.3
GGAGAGCAAUAUUACGACUU | -2.58 ± 0.19 | -0.744 ± 0.16
GGAGAGCAAUAUUACGAUGA | -2.47 ± 0.49 | –
GGAGAGCAAUAUUACGCCAA | -2.04 ± 0.24 | –
GGAGAGCAAUAUUACGCCCU | -2.57 ± 0.42 | –
GGAGAGCAAUAUUACGGCCU | -2.34 ± 0.29 | -1.19 ± 0.43
GGAGAGCAAUAUUACGGCGU | -1.58 ± 0.2 | -1.17 ± 0.26
GGAGAGCAAUAUUACGGCUC | -1.76 ± 0.2 | -2.82 ± 0.34
GGAGAGCAAUAUUACGGGCC | -2.35 ± 0.33 | –
GGAGAGCAAUAUUACGGUAU | – | -2.2 ± 0.34
GGAGAGCAAUAUUACGGUUA | -3.19 ± 0.38 | –
GGAGAGCAAUAUUACGUAGA | -4.01 ± 0.2 | -2.05 ± 0.15
GGAGAGCAAUAUUACGUAUC | -2.61 ± 0.34 | -0.193 ± 0.23

Sequence | self-splicing fitness (ln) (30 °C) | self-splicing fitness (ln) (37 °C)
GGAGAGCAAUAUUACGUAUU | -4.02 ± 0.31 | -1.22 ± 0.16
GGAGAGCAAUAUUACGUGUU | -4.51 ± 0.37 | -1.64 ± 0.31
GGAGAGCAAUAUUACGUUCA | -1.39 ± 0.17 | -0.277 ± 0.21
GGAGAGCAAUAUUACGUUGA | – | -1.97 ± 0.42
GGAUAGCAAUAUUACGACGU | -0.152 ± 0.28 | -0.257 ± 0.24
GGAUAGCAAUAUUACGAGAU | -3.46 ± 0.32 | 0.361 ± 0.15
GGAUAGCAAUAUUACGAGUC | -2.17 ± 0.26 | -1.06 ± 0.22
GGAUAGCAAUAUUACGAUGU | -0.882 ± 0.084 | -0.0369 ± 0.11
GGAUAGCAAUAUUACGCAUC | – | -1.63 ± 0.38
GGAUAGCAAUAUUACGCAUU | -3.51 ± 0.32 | -1.65 ± 0.22
GGAUAGCAAUAUUACGCGGU | -2.47 ± 0.33 | -2.6 ± 0.38
GGAUAGCAAUAUUACGCUUA | -1.88 ± 0.18 | -0.532 ± 0.15
GGAUAGCAAUAUUACGGACG | -0.899 ± 0.13 | -0.693 ± 0.17
GGAUAGCAAUAUUACGGAGG | -3.06 ± 0.2 | -2.77 ± 0.3
GGAUAGCAAUAUUACGGGCC | -2.56 ± 0.35 | -1.65 ± 0.23
GGAUAGCAAUAUUACGGGUG | -2.79 ± 0.33 | -0.239 ± 0.17
GGAUAGCAAUAUUACGGUUG | -3.53 ± 0.26 | -0.953 ± 0.18
GGAUAGCAAUAUUACGUCAG | -2.87 ± 0.12 | -2.12 ± 0.23
GGAUAGCAAUAUUACGUCGG | -2.62 ± 0.23 | -1.86 ± 0.27
GGAUAGCAAUAUUACGUCUU | -0.966 ± 0.096 | 0.126 ± 0.11
GGAUAGCAAUAUUACGUUCG | -1.55 ± 0.12 | -1.64 ± 0.14
GGCAAGCAAUAUUACGAACU | -1.18 ± 0.16 | 0.413 ± 0.14
GGCAAGCAAUAUUACGACGA | -1.37 ± 0.099 | -0.167 ± 0.11
GGCAAGCAAUAUUACGAUAU | -1.29 ± 0.073 | -0.406 ± 0.096
GGCAAGCAAUAUUACGAUUG | -3.03 ± 0.19 | -1.64 ± 0.16

Sequence | self-splicing fitness (ln) (30 °C) | self-splicing fitness (ln) (37 °C)
GGCAAGCAAUAUUACGCCAU | -2.4 ± 0.39 | -1.39 ± 0.29
GGCAAGCAAUAUUACGCCCU | -2.53 ± 0.26 | -0.495 ± 0.19
GGCAAGCAAUAUUACGGCCU | -2.74 ± 0.18 | 0.111 ± 0.23
GGCAAGCAAUAUUACGGGCU | -2.53 ± 0.2 | -2.48 ± 0.2
GGCAAGCAAUAUUACGGGGC | -2.62 ± 0.42 | -1.5 ± 0.32
GGCAAGCAAUAUUACGGUUA | -0.0834 ± 0.075 | 0.577 ± 0.074
GGCAAGCAAUAUUACGUAUU | -0.415 ± 0.06 | -0.183 ± 0.074
GGCAAGCAAUAUUACGUCAG | -4.5 ± 0.34 | -2.4 ± 0.26
GGCAAGCAAUAUUACGUCCA | -1.83 ± 0.22 | -0.175 ± 0.18
GGCAAGCAAUAUUACGUCUU | -0.676 ± 0.066 | -0.385 ± 0.071
GGCCAGCAAUAUUACGACUA | -0.921 ± 0.1 | -0.322 ± 0.1
GGCCAGCAAUAUUACGAGAG | -3.27 ± 0.24 | -2.52 ± 0.25
GGCCAGCAAUAUUACGCCGG | -3.21 ± 0.17 | -1.99 ± 0.23
GGCCAGCAAUAUUACGCGAG | – | -2.98 ± 0.35
GGCCAGCAAUAUUACGCUCU | -0.639 ± 0.12 | -0.0247 ± 0.17
GGCCAGCAAUAUUACGCUUG | -4.13 ± 0.26 | -2.58 ± 0.2
GGCCAGCAAUAUUACGGAAU | -0.615 ± 0.057 | -0.0748 ± 0.068
GGCCAGCAAUAUUACGGGCA | -1.06 ± 0.07 | -0.314 ± 0.079
GGCCAGCAAUAUUACGGGUA | -0.772 ± 0.064 | -0.783 ± 0.071
GGCCAGCAAUAUUACGGUAG | -0.883 ± 0.063 | 0.303 ± 0.083
GGCCAGCAAUAUUACGGUCG | -1.2 ± 0.14 | 0.113 ± 0.14
GGCCAGCAAUAUUACGUAGU | -2.25 ± 0.12 | -2.13 ± 0.12
GGCCAGCAAUAUUACGUCCA | -1.61 ± 0.17 | -0.128 ± 0.15
GGCCAGCAAUAUUACGUCGG | -3.69 ± 0.26 | -1.9 ± 0.24
